Experiment [1] concerns the target T1, human GPRC5D (human, UniProt Q9NZD1).
T1 chain: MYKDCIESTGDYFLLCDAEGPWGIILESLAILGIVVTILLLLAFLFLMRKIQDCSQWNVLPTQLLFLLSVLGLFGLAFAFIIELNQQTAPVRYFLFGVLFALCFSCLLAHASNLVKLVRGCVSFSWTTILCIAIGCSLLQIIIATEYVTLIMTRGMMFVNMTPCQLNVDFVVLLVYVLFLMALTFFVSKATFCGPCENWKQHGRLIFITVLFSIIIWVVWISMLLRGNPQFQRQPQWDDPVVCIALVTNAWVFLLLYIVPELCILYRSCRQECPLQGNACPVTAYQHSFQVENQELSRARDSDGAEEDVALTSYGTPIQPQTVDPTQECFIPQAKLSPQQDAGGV
In words: FACS, RPMI8226 cells. A general note: A flow cytometer gives signals particle by particle.

The target in experiment [2] is T1, human GPRC5D. As to the kind of experiment: FACS, NCI-H929 cells.
Experiment [3] deals with T1, human GPRC5D. As to the kind of experiment: FACS, NCI-H929 cells.
Experiment [4] has as its target T1, human GPRC5D. In words: FACS, human GPRC5D-CHOK1 cells.
Another experiment addresses human GPRC5A (human, UniProt Q8NFJ5). As to the kind of experiment: FACS, human GPRC5A-CHOK1 cells.
Experiment [5] concerns the target T1, human GPRC5D. In words: FACS, human GPRC5D-CHOK1 cells.
Experiment [6] addresses T2, human CD3 (human, UniProt P07766).
T2 chain: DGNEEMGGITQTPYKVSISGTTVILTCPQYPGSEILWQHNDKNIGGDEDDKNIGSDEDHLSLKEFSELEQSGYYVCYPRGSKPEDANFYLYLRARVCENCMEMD
In words: SPR.

In experiment [7] the target is T2, human CD3. As to the kind of experiment: FACS, Jurkat cells.
A further experiment has as its target T3, cynomolgus CD3 (cynomolgus monkey, UniProt Q95LI5).
T3 chain: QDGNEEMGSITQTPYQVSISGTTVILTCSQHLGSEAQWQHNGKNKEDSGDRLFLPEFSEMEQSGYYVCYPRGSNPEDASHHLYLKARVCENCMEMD
In words: SPR. For orientation: Surface plasmon resonance follows binding to a sensor surface in real time, without labels.

The text below walks through data of US20260297194 (published 2026).

Broadly, the EC50 is the concentration that produces a half-maximal response. For orientation: Kd means the equilibrium constant for the complex coming apart. Low values mean tighter binding, high ones weaker binding.

human GPRC5A, sequence (Q8NFJ5 whole entry): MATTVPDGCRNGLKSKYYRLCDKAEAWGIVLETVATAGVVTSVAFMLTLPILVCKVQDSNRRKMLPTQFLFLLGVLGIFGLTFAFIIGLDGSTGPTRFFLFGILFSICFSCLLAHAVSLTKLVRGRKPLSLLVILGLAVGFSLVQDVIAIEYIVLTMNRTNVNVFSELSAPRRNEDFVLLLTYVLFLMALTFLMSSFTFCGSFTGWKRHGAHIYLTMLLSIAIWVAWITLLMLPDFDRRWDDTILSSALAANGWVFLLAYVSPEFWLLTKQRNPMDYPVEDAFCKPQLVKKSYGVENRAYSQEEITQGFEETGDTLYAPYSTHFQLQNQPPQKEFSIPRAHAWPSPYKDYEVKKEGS

B1: Bispecific antibody 1 (GPRC5D arm) (antibody, V domains shown)
VH: QVQLVQSGAEVKKPGASVKVSCKASGYTFTSYIIHWVRQAPGQGLEWIGYINPYNDGTKYNEKFKGRVTMTSDTSTSTVYMELSSLRSEDTAVYYCARGGIRAFMNYWGQGTLVTVSS
VL: DIQMTQSPSSLSASVGDRVTITCKASQDVGTAVAWYQQKPGKAPKLLIYWASTRHTGVPSRFSGSGSGTDFTLTISSLQPEDFATYYCQHYISWTFGQGTKVEIK
B1: the EC50 with human GPRC5D [1] amounted to 7.48 nM; with human GPRC5D [2] it was 1.07 nM.

B2: Bispecific antibody 2 (GPRC5D arm) (antibody, V domains shown)
VH: B1 VH
VL: B1 VL
Take B2: the results for the concentration for a half-maximal effect (EC50) with human GPRC5D [1] and with human GPRC5D [2] were 22.9 nM and 5.19 nM, respectively.

B3: 18CH16H2L1 (antibody, V domains shown)
VH: B1 VH
VL: B1 VL
B3: the half-maximal effective concentration (EC50) with human GPRC5D [3] amounted to 0.3 nM; with human GPRC5D [4], 0.51 nM.

B4: 18CH-16 chimeric (antibody, V domains shown)
VH: EVQLQQSGPELVKPGASVKMSCKASGYTFTSYIIHWVKQKPGQGLEWIGYINPYNDGTKYNEKFKGKATLTSDRSSSTAYMEVSSLTSEDSAVYYCARGGIRAFMNYWGQGTSVTVSS
VL: DIVMTQSHKFMSTSVGDRVSITCKASQDVGTAVAWYQQKPGQSPKLLIYWASTRHTGVPDRFTGSGSGTDFTLSISNVQSEDLADYFCQHYISWTFGGGTNLEIK
Consider B4, for which the binding result with human GPRC5A is given as “no binding”. This molecule had a concentration giving a half-maximal response (EC50) in the experiment with human GPRC5D [5] of 3.89 nM.

B5: Bispecific antibody 1 (CD3 arm) (antibody, V domains shown)
VH: EVKLVESGGGLVQPGGSLKLSCAASGFTFNTYAMNWVRQAPGKGLEWVARIRSKYNNYATYYADSVKDRFTISRDDAKNTLYLQMNNLRTEDTAVYYCVRHGNFGNSYVSWFAYWGQGTLVTVSS
VL: QAVVTQEPSLTVSPGGTVTLTCRSSTGAVTTSNYANWVQQKPGQAPRGLIGGTNKRAPGTPARFSGSLLGGKAALTLSGAQPEDEAEYYCALWYSNLWVFGGGTKLTVL
modifications: Acro CDD-H52W1 for SPR; native CD3 on Jurkat cells for FACS
In turn, B5 yielded a dissociation constant (Kd) with human CD3 [6] of 20 nM. In the experiment with human CD3 [7], this molecule gave a 50% effective concentration (EC50) of 22.1 nM.

B6: Bispecific antibody 2 (CD3 arm) (antibody, V domains shown)
VH: B5 VH
VL: B5 VL
modifications: Acro CDD-C52W4
In the experiment with cynomolgus CD3, B6 came in with a Kd of 18.9 nM.

B7: Bispecific antibody 2 (CD3 arm) (antibody, V domains shown)
VH: B5 VH
VL: B5 VL
modifications: Acro CDD-H52W1 for SPR; native CD3 on Jurkat cells for FACS
As for B7, binding with human CD3 [6] was characterised by a dissociation constant (Kd) of 18.1 nM. Further, the midpoint of the response with human CD3 [7], the EC50, lay at 12.9 nM.

B8: Bispecific antibody 1 (CD3 arm) (antibody, V domains shown)
VH: B5 VH
VL: B5 VL
modifications: Acro CDD-C52W4
With B8, the Kd with cynomolgus CD3 was 16.8 nM.
